Test results published in PMC9482650, “Quantitative fragmentomics allow affinity mapping of interactomes” (Nature Communications, 2022).
Numbering of substitutions follows the chain as printed.

T1: TJP3_3, O95049
T1 sequence (O95049 375-456, limits assumed, looked up): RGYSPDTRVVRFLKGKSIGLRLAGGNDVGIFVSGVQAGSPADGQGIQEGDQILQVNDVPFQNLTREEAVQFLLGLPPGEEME

T2: SYNJ2BP, P57105
T2 sequence (P57105 8-110, limits assumed, looked up): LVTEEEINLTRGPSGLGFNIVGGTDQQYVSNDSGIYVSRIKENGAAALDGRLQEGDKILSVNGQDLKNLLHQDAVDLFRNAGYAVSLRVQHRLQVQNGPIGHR

T3: PARD3B_1, Q8TEW8
T3 sequence (Q8TEW8 196-299, limits assumed, looked up): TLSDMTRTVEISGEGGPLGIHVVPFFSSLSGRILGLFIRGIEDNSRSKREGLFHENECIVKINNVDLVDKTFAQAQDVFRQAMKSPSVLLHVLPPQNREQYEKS

T4: GRIP1_5, Q9Y3R0
T4 sequence (Q9Y3R0 568-668, limits assumed, looked up): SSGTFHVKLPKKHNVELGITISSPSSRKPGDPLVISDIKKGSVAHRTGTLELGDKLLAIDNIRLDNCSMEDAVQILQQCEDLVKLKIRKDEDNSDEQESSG

T5: SHANK1, Q9Y566
T5 sequence (Q9Y566 658-767, limits assumed, looked up): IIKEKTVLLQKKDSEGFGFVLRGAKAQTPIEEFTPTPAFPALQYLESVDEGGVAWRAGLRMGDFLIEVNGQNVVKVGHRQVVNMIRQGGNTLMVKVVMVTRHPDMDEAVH

T6: APBA1_2, Q02410
T6 sequence (Q02410 742-832, limits assumed, looked up): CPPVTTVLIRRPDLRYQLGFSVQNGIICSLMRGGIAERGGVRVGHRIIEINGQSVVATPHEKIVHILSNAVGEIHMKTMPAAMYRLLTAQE

T7: LIN7C, Q9NUP9
T7 sequence (Q9NUP9 88-185, limits assumed, looked up): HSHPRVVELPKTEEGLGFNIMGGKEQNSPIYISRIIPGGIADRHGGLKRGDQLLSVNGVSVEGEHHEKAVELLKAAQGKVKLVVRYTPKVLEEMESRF

T8: RADIL, Q96JH8
T8 sequence (Q96JH8 971-1071, limits assumed, looked up): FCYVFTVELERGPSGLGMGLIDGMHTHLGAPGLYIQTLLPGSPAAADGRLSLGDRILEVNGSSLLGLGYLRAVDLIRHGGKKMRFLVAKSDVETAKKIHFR

T9: LIN7A, O14910
T9 sequence (O14910 103-200, limits assumed, looked up): T7 sequence (Q9NUP9 88-185, limits assumed, looked up) with E13D, I20V, I40V, D42E, Q77K, G78D, K79S, S96A

T10: DLG3_1, Q92796
T10 sequence (Q92796 125-227, limits assumed, looked up): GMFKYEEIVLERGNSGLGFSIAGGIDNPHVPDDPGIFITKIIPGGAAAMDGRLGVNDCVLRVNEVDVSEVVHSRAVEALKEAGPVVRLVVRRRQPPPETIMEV

B1: ADGRA3, Q8IWK6 (peptide)
chain: TGLWKHETTV
B2: FZD4, Q9ULV1 (peptide)
chain: KPGKGSETVV
B3: PLXNB1, O43157 (peptide)
chain: AAVENKVTDL

Each binder was assayed against T1, TJP3_3, O95049 (assay: holdup assay). Details: plain residues with an end cap or a label only (N-terminal biotin on a linker: ado-ado).
Design: key: below the threshold = too weak to quantify, mostly under pKd 3.1 to 4

Row | pKd | Binder
1 | below the threshold | B1
2 | below the threshold | B2
3 | below the threshold | B3

Each binder was assayed against MAST1, Q9Y2H9 (assay: holdup assay). Details: plain residues with an end cap or a label only (N-terminal biotin on a linker: ado-ado).
Design: key: below the threshold = too weak to quantify, mostly under pKd 3.1 to 4

MAST1, Q9Y2H9, sequence (Q9Y2H9 962-1065): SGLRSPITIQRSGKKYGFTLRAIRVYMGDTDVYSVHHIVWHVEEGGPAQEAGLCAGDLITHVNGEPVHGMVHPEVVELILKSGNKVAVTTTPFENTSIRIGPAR

Row | pKd | Binder
4 | 4.78 | B1
5 | 4.4 | B2
6 | 4.67 | B3

What follows are binders tested against MAGI2_5, Q86UL8 (assay: holdup assay). Details: plain residues with an end cap or a label only (N-terminal biotin on a linker: ado-ado).
Design: key: below the threshold = too weak to quantify, mostly under pKd 3.1 to 4

MAGI2_5, Q86UL8, sequence (Q86UL8 915-1017): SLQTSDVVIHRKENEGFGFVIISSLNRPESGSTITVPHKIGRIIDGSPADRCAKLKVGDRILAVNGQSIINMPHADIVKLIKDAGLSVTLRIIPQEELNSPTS

Row | pKd | Binder
7 | 4.41 | B1
8 | 3.55 | B2
9 | below the threshold | B3

What follows are binders tested against PTPN3, P26045 (assay: holdup assay). Details: plain residues with an end cap or a label only (N-terminal biotin on a linker: ado-ado).
Design: key: below the threshold = too weak to quantify, mostly under pKd 3.1 to 4

PTPN3, P26045, sequence (P26045 505-587): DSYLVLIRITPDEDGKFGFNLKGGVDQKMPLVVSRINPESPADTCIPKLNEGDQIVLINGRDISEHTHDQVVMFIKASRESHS

Row | pKd | Binder
10 | 4.5 | B1
11 | 4.13 | B2
12 | 4.68 | B3

The binders below were run against T2, SYNJ2BP, P57105 (assay: holdup assay). Details: plain residues with an end cap or a label only (N-terminal biotin on a linker: ado-ado).
Design: key: below the threshold = too weak to quantify, mostly under pKd 3.1 to 4

Row | pKd | Binder
13 | 5.19 | B1
14 | 4.3 | B2
15 | below the threshold | B3

The binders below were run against T3, PARD3B_1, Q8TEW8 (assay: holdup assay). Details: plain residues with an end cap or a label only (N-terminal biotin on a linker: ado-ado).
Design: key: below the threshold = too weak to quantify, mostly under pKd 3.1 to 4

Row | pKd | Binder
16 | below the threshold | B1
17 | below the threshold | B2
18 | 3.54 | B3

Each binder was assayed against T4, GRIP1_5, Q9Y3R0 (assay: holdup assay). Details: plain residues with an end cap or a label only (N-terminal biotin on a linker: ado-ado).
Design: key: below the threshold = too weak to quantify, mostly under pKd 3.1 to 4

Row | pKd | Binder
19 | below the threshold | B1
20 | below the threshold | B2
21 | below the threshold | B3

Each binder was assayed against AHNAK1, Q09666 (assay: holdup assay). Details: plain residues with an end cap or a label only (N-terminal biotin on a linker: ado-ado).
Design: key: below the threshold = too weak to quantify, mostly under pKd 3.1 to 4

AHNAK1, Q09666, sequence (Q09666 4-100): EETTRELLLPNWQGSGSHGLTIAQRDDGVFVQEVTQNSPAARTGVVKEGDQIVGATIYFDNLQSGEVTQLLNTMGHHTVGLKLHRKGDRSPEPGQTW

Row | pKd | Binder
22 | below the threshold | B1
23 | below the threshold | B2
24 | below the threshold | B3

The binders below were run against T5, SHANK1, Q9Y566 (assay: holdup assay). Details: plain residues with an end cap or a label only (N-terminal biotin on a linker: ado-ado).
Design: key: below the threshold = too weak to quantify, mostly under pKd 3.1 to 4

Row | pKd | Binder
25 | below the threshold | B1
26 | below the threshold | B2
27 | below the threshold | B3

Each binder was assayed against Inadl_1, Q8NI35 (assay: holdup assay). Details: plain residues with an end cap or a label only (N-terminal biotin on a linker: ado-ado).
Design: key: below the threshold = too weak to quantify, mostly under pKd 3.1 to 4

Inadl_1, Q8NI35, sequence (Q8NI35 113-229): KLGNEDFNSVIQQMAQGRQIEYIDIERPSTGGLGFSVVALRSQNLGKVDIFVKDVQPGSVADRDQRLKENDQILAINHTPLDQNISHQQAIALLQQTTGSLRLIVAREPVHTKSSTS

Row | pKd | Binder
28 | below the threshold | B1
29 | below the threshold | B2
30 | below the threshold | B3

What follows are binders tested against T6, APBA1_2, Q02410 (assay: holdup assay). Details: plain residues with an end cap or a label only (N-terminal biotin on a linker: ado-ado).
Design: key: below the threshold = too weak to quantify, mostly under pKd 3.1 to 4

Row | pKd | Binder
31 | 3.59 | B1
32 | 3.64 | B2
33 | 4.23 | B3

The binders below were run against DLG1_1, Q12959 (assay: holdup assay). Details: plain residues with an end cap or a label only (N-terminal biotin on a linker: ado-ado).
Design: key: below the threshold = too weak to quantify, mostly under pKd 3.1 to 4

Row | pKd | Binder
34 | 5.12 | B1
35 | 4.65 | B2
36 | 3.7 | B3

What follows are binders tested against MAGI1_1, Q96QZ7 (assay: holdup assay). Details: plain residues with an end cap or a label only (N-terminal biotin on a linker: ado-ado).
Design: key: below the threshold = too weak to quantify, mostly under pKd 3.1 to 4

MAGI1_1, Q96QZ7, sequence (Q96QZ7 1-106): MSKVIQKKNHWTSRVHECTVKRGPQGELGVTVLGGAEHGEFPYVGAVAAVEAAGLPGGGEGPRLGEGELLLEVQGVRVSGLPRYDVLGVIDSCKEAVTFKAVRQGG

Row | pKd | Binder
37 | below the threshold | B1
38 | below the threshold | B2
39 | below the threshold | B3

What follows are binders tested against MAGI1_2, Q96QZ7 (assay: holdup assay). Details: plain residues with an end cap or a label only (N-terminal biotin on a linker: ado-ado).
Design: key: below the threshold = too weak to quantify, mostly under pKd 3.1 to 4

MAGI1_2, Q96QZ7, sequence (Q96QZ7 456-580): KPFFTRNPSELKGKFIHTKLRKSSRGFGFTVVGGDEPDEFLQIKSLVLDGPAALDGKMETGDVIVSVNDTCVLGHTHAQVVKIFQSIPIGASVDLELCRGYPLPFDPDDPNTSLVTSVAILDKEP

Row | pKd | Binder
40 | 4.91 | B1
41 | 4.47 | B2
42 | below the threshold | B3

The binders below were run against GORASP1, Q9BQQ3 (assay: holdup assay). Details: plain residues with an end cap or a label only (N-terminal biotin on a linker: ado-ado).
Design: key: below the threshold = too weak to quantify, mostly under pKd 3.1 to 4

GORASP1, Q9BQQ3, sequence (Q9BQQ3 1-208): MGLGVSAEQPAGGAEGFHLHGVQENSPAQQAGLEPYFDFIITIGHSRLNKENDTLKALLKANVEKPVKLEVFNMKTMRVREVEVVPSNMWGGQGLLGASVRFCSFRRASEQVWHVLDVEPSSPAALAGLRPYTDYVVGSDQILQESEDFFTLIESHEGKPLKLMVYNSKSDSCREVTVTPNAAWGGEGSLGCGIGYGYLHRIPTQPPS

Row | pKd | Binder
43 | below the threshold | B1
44 | 3.78 | B2
45 | below the threshold | B3

What follows are binders tested against PARD3_3, Q8TEW0 (assay: holdup assay). Details: plain residues with an end cap or a label only (N-terminal biotin on a linker: ado-ado).
Design: key: below the threshold = too weak to quantify, mostly under pKd 3.1 to 4

PARD3_3, Q8TEW0, sequence (Q8TEW0 582-685): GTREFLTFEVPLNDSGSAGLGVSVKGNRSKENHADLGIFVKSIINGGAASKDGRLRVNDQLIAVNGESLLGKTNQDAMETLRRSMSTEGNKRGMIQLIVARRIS

Row | pKd | Binder
46 | 3.54 | B1
47 | below the threshold | B2
48 | below the threshold | B3

Each binder was assayed against Inadl_2, Q8NI35 (assay: holdup assay). Details: plain residues with an end cap or a label only (N-terminal biotin on a linker: ado-ado).
Design: key: below the threshold = too weak to quantify, mostly under pKd 3.1 to 4

Inadl_2, Q8NI35, sequence (Q8NI35 238-335): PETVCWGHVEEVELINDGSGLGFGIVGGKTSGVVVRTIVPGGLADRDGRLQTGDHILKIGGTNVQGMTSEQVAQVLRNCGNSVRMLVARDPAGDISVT

Row | pKd | Binder
49 | below the threshold | B1
50 | below the threshold | B2
51 | below the threshold | B3

The binders below were run against T7, LIN7C, Q9NUP9 (assay: holdup assay). Details: plain residues with an end cap or a label only (N-terminal biotin on a linker: ado-ado).
Design: key: below the threshold = too weak to quantify, mostly under pKd 3.1 to 4

Row | pKd | Binder
52 | 4.6 | B1
53 | 4.08 | B2
54 | below the threshold | B3

What follows are binders tested against NHERF2_2, Q15599 (assay: holdup assay). Details: plain residues with an end cap or a label only (N-terminal biotin on a linker: ado-ado).
Design: key: below the threshold = too weak to quantify, mostly under pKd 3.1 to 4

NHERF2_2, Q15599, sequence (Q15599 142-238): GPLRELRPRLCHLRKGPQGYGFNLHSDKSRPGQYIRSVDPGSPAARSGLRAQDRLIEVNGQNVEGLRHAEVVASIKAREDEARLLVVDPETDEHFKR

Row | pKd | Binder
55 | below the threshold | B1
56 | below the threshold | B2
57 | 4.07 | B3

Each binder was assayed against T8, RADIL, Q96JH8 (assay: holdup assay). Details: plain residues with an end cap or a label only (N-terminal biotin on a linker: ado-ado).
Design: key: below the threshold = too weak to quantify, mostly under pKd 3.1 to 4

Row | pKd | Binder
58 | 4.43 | B1
59 | 3.97 | B2
60 | below the threshold | B3

Each binder was assayed against HTRA2, O43464 (assay: holdup assay). Details: plain residues with an end cap or a label only (N-terminal biotin on a linker: ado-ado).
Design: key: below the threshold = too weak to quantify, mostly under pKd 3.1 to 4

HTRA2, O43464, sequence (O43464 355-458): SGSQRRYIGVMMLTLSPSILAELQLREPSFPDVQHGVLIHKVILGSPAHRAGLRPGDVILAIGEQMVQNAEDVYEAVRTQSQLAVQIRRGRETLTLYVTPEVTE

Row | pKd | Binder
61 | below the threshold | B1
62 | below the threshold | B2
63 | below the threshold | B3

These binders were tested against DLG2_2, Q15700 (assay: holdup assay). Details: plain residues with an end cap or a label only (N-terminal biotin on a linker: ado-ado).
Design: key: below the threshold = too weak to quantify, mostly under pKd 3.1 to 4

DLG2_2, Q15700, sequence (Q15700 189-283): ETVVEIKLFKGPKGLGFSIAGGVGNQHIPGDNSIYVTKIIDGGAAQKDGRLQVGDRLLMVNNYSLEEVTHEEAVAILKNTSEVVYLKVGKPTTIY

Row | pKd | Binder
64 | 5.4 | B1
65 | 4.87 | B2
66 | 3.95 | B3

These binders were tested against T9, LIN7A, O14910 (assay: holdup assay). Details: plain residues with an end cap or a label only (N-terminal biotin on a linker: ado-ado).
Design: key: below the threshold = too weak to quantify, mostly under pKd 3.1 to 4

Row | pKd | Binder
67 | 4.19 | B1
68 | below the threshold | B2
69 | below the threshold | B3

What follows are binders tested against DLG4_2, P78352 (assay: holdup assay). Details: plain residues with an end cap or a label only (N-terminal biotin on a linker: ado-ado).
Design: key: below the threshold = too weak to quantify, mostly under pKd 3.1 to 4

DLG4_2, P78352, sequence (P78352 155-259): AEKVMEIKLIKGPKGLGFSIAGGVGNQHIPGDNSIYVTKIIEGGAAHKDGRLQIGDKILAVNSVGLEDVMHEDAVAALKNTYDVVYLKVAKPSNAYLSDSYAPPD

Row | pKd | Binder
70 | 5.41 | B1
71 | 4.92 | B2
72 | 4.2 | B3

What follows are binders tested against T10, DLG3_1, Q92796 (assay: holdup assay). Details: plain residues with an end cap or a label only (N-terminal biotin on a linker: ado-ado).
Design: key: below the threshold = too weak to quantify, mostly under pKd 3.1 to 4

Row | pKd | Binder
73 | 4.69 | B1
74 | 4.28 | B2
75 | below the threshold | B3

The binders below were run against Inadl_9, Q8NI35 (assay: holdup assay). Details: plain residues with an end cap or a label only (N-terminal biotin on a linker: ado-ado).
Design: key: below the threshold = too weak to quantify, mostly under pKd 3.1 to 4

Inadl_9, Q8NI35, sequence (Q8NI35 1530-1615): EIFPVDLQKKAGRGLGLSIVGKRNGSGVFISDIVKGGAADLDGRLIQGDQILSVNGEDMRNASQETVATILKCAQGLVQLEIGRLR

Row | pKd | Binder
76 | 3.74 | B1
77 | below the threshold | B2
78 | below the threshold | B3

The binders below were run against GRIP2_3, Q9C0E4 (assay: holdup assay). Details: plain residues with an end cap or a label only (N-terminal biotin on a linker: ado-ado).
Design: key: below the threshold = too weak to quantify, mostly under pKd 3.1 to 4

GRIP2_3, Q9C0E4, sequence (Q9C0E4 238-339): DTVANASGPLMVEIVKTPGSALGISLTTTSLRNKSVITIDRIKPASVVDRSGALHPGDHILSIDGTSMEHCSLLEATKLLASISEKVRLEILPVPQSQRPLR

Row | pKd | Binder
79 | below the threshold | B1
80 | below the threshold | B2
81 | below the threshold | B3
